Results from US20130171063A1 (LUDWIG INSTITUTE FOR CANCER RESEARCH, published 2013).
One block for each binder: values may come before it.

Assays:
peptide 47 = biological target: T1, peptide 47 (N-terminal biotin); assay: ELISA on biotinylated 20-mer c-Met peptides on streptavidin plates, A405 nm, mean ± SEM
T1 peptide: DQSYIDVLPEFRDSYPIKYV
Experimental: (§1) The library consisted of N-terminally biotinylated, 20-mer peptides, overlapping by 15 amino acids and pre-absorbed onto 96-well streptavidin coated plates. LMH antibodies 80 to 89 were added to these plates to determine their reactivity against each single peptide using standard ELISA. Epitopes for each antibody were determined by overlaying the sequences of the peptides which reacted with the antibody, leading to a determination of a core common amino acid sequence.
(§2) The peptide sequence bound by each antibody was aligned to determine the core epitope.

peptide 46 = biological target: T2, peptide 46 (N-terminal biotin); assay: as above
T2 peptide: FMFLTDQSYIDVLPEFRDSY
Experimental: as §1, §2

peptide 48 = biological target: T3, peptide 48 (N-terminal biotin); assay: as above
T3 peptide: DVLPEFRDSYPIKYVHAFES
Experimental: as §1, §2

[1] = biological target: T4, purified truncated c-Met fragment designated 25-567H (human, UniProt P08581 25-567); assay: BIAcore, His6-c-Met 25-567 on Ni-NTA chip, antibody passed over; apparent KD
T4 construct: Produced in transfected CHO-Lec cells; also called c-Met antigen; c-Met Ag
Text: The LMH antibodies were passed over the chip at varying concentrations in order to determine apparent affinity (KD). Chips were regenerated with EDTA.

peptide 23 = biological target: T5, peptide 23 (N-terminal biotin); assay: ELISA on biotinylated 20-mer c-Met peptides on streptavidin plates, A405 nm
T5 peptide: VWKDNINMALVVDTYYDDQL
Experimental: as §1, §2

peptide 25 = biological target: T6, peptide 25 (N-terminal biotin); assay: as above
T6 peptide: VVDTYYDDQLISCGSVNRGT
Experimental: as §1, §2

peptide 24 = biological target: T7, peptide 24 (N-terminal biotin); assay: as above
T7 peptide: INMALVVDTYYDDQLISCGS
Experimental: as §1, §2

unprocessed c-Met (p170) = biological target: T8, unprocessed c-Met (p170) (human, UniProt P08581 25-1390); assay: immunoprecipitation from A549 cells, western blot with 25H2 under reducing conditions
T8 construct: whole, on cells; Single-chain precursor, not cleaved at the furin site; also called unprocessed form of c-Met; c-Met precursor

[2] = biological target: T9, c-Met receptor as expressed by human tumor cells (total c-Met) (human, UniProt P08581 25-1390); assay: flow cytometry on A549 cells, PE-conjugated anti-mouse secondary antibody
T9 construct: whole, on cells; also called surface c-Met; HGFR
Text: The control antibody was a mouse IgG1 isotype matched antibody. An increase in PE signal intensity indicated antibody binding to c-Met.

[3] = biological target: T4, purified truncated c-Met fragment …; assay: ELISA, plate coated with recombinant truncated c-Met antigen
Experimental: Following incubation, the supernatant was removed and the wells washed twice with wash buffer 0.05% Tween20-PBS, this was followed by a 1 hour block at room temperature with 3% FCS/PBS at 230 μl/well. The wells were then washed one with wash buffer (0.05% Tween 2-PBS) and rinsed with PBS. 100 μl of sample (hybridoma supernatant) was then added to each well and the plate incubated at room temperature for 1 hour. This was followed by a 4× wash with wash buffer (0.05% Tween 2-PBS) and rinse with PBS. 100 μl of goat anti-mouse Ig gamma-AP (Sigma A3438), diluted in wash buffer 1:2000 was then added and allowed to incubate at room temperature for 1 hour. Following the incubation, the wells were washed 4× with wash buffer and rinsed with PBS. The reaction was developed with 100 μl of pNPP (1 mg/ml n diethanolamine-HCL buffer pH 9.6) for 10 mins at room temperature. This was followed by stop solution (3.0 M NaOH, 50 μl/well). The OD was measured at 405 nm.

T4 sequence (P08581 other isoform, or with tags, fused parts or gaps limits assumed): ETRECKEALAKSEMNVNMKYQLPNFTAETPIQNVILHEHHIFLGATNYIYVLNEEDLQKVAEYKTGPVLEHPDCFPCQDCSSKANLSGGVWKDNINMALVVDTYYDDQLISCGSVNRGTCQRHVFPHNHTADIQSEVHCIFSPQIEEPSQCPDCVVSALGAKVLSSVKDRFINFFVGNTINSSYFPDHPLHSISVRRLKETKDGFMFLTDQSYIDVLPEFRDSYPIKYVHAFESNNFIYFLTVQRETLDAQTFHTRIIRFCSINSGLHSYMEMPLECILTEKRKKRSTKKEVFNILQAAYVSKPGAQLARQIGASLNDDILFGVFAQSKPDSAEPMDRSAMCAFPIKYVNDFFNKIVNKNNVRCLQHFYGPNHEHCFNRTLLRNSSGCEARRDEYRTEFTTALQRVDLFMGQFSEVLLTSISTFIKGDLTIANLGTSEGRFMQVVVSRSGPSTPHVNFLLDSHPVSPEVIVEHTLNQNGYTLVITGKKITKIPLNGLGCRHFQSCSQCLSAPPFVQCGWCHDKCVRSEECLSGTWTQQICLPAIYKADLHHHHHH
T8 sequence (P08581 25-1390): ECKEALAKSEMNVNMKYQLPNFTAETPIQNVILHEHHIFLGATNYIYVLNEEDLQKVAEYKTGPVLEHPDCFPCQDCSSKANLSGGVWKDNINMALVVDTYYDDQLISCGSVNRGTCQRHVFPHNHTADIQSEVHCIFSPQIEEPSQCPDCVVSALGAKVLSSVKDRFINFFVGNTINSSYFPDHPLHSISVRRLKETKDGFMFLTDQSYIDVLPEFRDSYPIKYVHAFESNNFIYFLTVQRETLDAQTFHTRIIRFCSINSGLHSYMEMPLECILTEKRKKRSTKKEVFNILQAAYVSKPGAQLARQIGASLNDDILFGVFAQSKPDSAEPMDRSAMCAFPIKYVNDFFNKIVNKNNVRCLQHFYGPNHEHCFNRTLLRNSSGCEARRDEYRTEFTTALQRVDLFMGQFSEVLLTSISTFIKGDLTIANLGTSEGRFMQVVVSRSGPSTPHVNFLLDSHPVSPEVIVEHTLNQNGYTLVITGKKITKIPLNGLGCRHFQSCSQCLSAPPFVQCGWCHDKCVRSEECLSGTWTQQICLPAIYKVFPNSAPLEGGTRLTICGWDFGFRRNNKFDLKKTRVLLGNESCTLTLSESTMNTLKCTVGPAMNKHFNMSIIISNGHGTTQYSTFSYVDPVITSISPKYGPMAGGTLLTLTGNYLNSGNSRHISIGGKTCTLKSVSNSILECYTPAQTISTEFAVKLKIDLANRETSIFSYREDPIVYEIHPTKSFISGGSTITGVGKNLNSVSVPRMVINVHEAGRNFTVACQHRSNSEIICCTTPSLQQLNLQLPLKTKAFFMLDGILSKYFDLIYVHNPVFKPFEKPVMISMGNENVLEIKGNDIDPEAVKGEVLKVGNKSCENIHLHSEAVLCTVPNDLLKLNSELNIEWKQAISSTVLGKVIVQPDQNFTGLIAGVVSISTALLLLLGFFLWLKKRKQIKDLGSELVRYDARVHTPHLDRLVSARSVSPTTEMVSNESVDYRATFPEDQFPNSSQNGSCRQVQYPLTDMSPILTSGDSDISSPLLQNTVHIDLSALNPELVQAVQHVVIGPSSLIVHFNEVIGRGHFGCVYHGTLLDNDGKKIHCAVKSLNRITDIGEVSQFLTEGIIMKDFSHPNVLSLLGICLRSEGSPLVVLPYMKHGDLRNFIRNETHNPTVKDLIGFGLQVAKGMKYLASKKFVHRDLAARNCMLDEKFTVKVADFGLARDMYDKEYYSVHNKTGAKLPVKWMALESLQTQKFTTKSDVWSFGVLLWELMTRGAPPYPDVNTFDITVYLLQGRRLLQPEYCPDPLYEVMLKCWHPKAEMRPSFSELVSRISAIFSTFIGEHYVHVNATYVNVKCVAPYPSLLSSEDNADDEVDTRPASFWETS
T9 sequence (P08581 25-1390): as above

binding result (peptide 47): binds | binding result (peptide 46): binds | binding result (peptide 48): binds | Kd [1]: 2.6 nM
B1: antibody LMH 87 (antibody, V domains shown)
VH: QVQLQQSGPELVKSGASVKMSCKASGNTLKDDHVHWVKQRPGQGLEWIGWIYPGGGRTRYNEKFKGKTTLTADKPSSTVNMLLSSLTSEDSAIYFCTNLVFDVWGAGTTVTVSS
VL: DIVMTQAAPSVPVTPGESVSISCRSSKSLLHSNGNTYLYWFLQRPGQSPQVLIYRMSNLASGVPDRFSGSGSGTAFTLRIRRVEAEDVGVYYCMQNLEYPFTFGGGTKLEIK
notes: Mouse monoclonal antibody from a hybridoma

binding result (peptide 23): binds | binding result (peptide 25): binds | binding result (peptide 24): binds
B2: antibody LMH 82 (antibody, V domains shown)
VH: EVQLQQSGPELVKPGASVKMSCKASGYTFTDYYMKWVKQSHGKNLEWIGDINPNNGGTNYNQKFKGKATLTVDKSSSTAYMQLNSLTSEDSAVYYCARSGYWGQGTTLTVSS
VL: DVLMTQTPLSLPVSLGDQASISCRSSQSILHSNGNTYLEWYLQKPGQSPKLLIYKVSNRFSGVPDRFSGSGSGTDFTLKISRVEAEDLGVYYCFQGSHVPWTFGGGTKLEIK
notes: Mouse monoclonal antibody from a hybridoma; also called hybridoma PTA-11406

binding result (unprocessed c-Met (p170)): binds | binding result [2]: binds | binding result [3]: binds
B3: antibody LMH 85 (antibody, V domains shown)
VH: QVQLQQSGAELAKPGASVKMSCKASGYTFIIYWIHWIKQRPGQGLEWIGYINPSNDYTEYNQKFKDKATLTADKSSNTAFMQLSSLTSEDSAVYYCARDSYDYDDGAYAMDYWGQGTSVTVSS
VL: QIVLSQSPAILSASPGEKVTMTCRASSGVNYMHWYQQKPGSSPKPWIYATSNLASGVPARFSGSGSGTSYSLTISRVEAEDAATYYCQQWISHPFTFGSGTKLEIK
notes: as for B1
